The text below walks through data of patent US20100021490A1 (INSTITUT NATIONAL DE LA RECHERCHE AGRONOMIQUE INRA, published 2010).

The assay deals with T1, N protein of measles virus (Edmonston B strain) (measles virus, Edmonston B strain, UniProt P0DXN6 1-525, limits assumed).
T1 construct: The construct is not described; also called measles virus N protein
T1 sequence: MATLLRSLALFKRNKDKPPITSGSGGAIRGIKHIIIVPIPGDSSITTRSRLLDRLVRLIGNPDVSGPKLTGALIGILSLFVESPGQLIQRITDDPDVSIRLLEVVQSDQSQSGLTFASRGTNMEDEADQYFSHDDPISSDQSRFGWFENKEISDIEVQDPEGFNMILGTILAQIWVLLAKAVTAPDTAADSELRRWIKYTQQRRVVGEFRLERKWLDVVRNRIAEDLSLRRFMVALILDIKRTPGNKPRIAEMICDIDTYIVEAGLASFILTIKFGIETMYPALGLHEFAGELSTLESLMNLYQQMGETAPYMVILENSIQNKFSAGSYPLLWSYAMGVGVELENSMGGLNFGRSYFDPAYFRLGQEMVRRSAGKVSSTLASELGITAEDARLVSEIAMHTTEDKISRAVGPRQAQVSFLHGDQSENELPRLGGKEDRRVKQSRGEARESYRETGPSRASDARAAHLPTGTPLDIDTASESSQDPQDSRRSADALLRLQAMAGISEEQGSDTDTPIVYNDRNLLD
In words: coexpression of the P fragment with N, co-purification.

B1: PΔ457N (C-terminal fragment of the measles virus P protein with the N-terminal portion deleted up to residue 456 inclusive) (other, not shown: a dimerising Fc or GST)
chain: GPASRSVIRSIIKSSRLEEDRKRYLMTLLDDIKGANDLAKFHQMLMKIIMK
notes: also called measles PΔ457N
For B1, the binding result is listed as “no binding”.
